Test results: article PMC5006159, “Structural basis for early-onset neurological disorders caused by mutations in human selenocysteine synthase” (Scientific Reports, 2016)

Assays:
[1] = biological target: the molecule itself; assay: SEC; S200 SEC of the soluble, purified His-tagged SepSecS samples; tetramer peak at ~70 min, 'early' peak at ~55 min; self-association
[2] = biological target: the molecule itself; assay: crystal structure; binary complexes with human tRNASec, sitting drop at +12 °C, sodium cacodylate, lithium citrate, PEG 3,350; trigonal, two SepSecS dimers and one tRNASec in the asymmetric unit
[3] = biological target: the molecule itself; assay: crystal structure; holo T325S, sitting drop at +12 °C, lithium citrate and PEG 3,350; orthorhombic, half of the tetramer in the asymmetric unit

B1: human O-phosphoseryl-tRNASec:selenocysteinyl-tRNASec synthase (SepSecS), wild type (enzyme)
chain: MNRESFAAGERLVSPAYVRQGCEARRSHEHLIRLLLEKGKCPENGWDESTLELFLHELAIMDSNNFLGNCGVGEREGRVASALVARRHYRFIHGIGRSGDISAVQPKAAGSSLLNKITNSLVLDIIKLAGVHTVANCFVVPMATGMSLTLCFLTLRHKRPKAKYIIWPRIDQKSCFKSMITAGFEPVVIENVLEGDELRTDLKAVEAKVQELGPDCILCIHSTTSCFAPRVPDRLEELAVICANYDIPHIVNNAYGVQSSKCMHLIQQGARVGRIDAFVQSLDKNFMVPVGGAIIAGFNDSFIQEISKMYPGRASASPSLDVLITLLSLGSNGYKKLLKERKEMFSYLSNQIKKLSEAYNERLLHTPHNPISLAMTLKTLDEHRDKAVTQLGSMLFTRQVSGARVVPLGSMQTVSGYTFRGFMSHTNNYPCAYLNAASAIGMKMQDVDLFIKRLDRCLKAVRKERSKESDDNYDKTEDVDIEEMALKLDNVLLDTYQDASS
notes: human SepSecS (SEPSECS) cloned into pQE80 with an N-terminal His-tag; PLP cofactor covalently attached to Lys284; Band at ~60 kDa on SDS-PAGE; also called WT SepSecS; WT; not shown: His6, N-terminal, kept
stoichiometry N [1]: 4

B2: human SepSecS Tyr334Cys variant (enzyme)
chain: MNRESFAAGERLVSPAYVRQGCEARRSHEHLIRLLLEKGKCPENGWDESTLELFLHELAIMDSNNFLGNCGVGEREGRVASALVARRHYRFIHGIGRSGDISAVQPKAAGSSLLNKITNSLVLDIIKLAGVHTVANCFVVPMATGMSLTLCFLTLRHKRPKAKYIIWPRIDQKSCFKSMITAGFEPVVIENVLEGDELRTDLKAVEAKVQELGPDCILCIHSTTSCFAPRVPDRLEELAVICANYDIPHIVNNAYGVQSSKCMHLIQQGARVGRIDAFVQSLDKNFMVPVGGAIIAGFNDSFIQEISKMYPGRASASPSLDVLITLLSLGSNGCKKLLKERKEMFSYLSNQIKKLSEAYNERLLHTPHNPISLAMTLKTLDEHRDKAVTQLGSMLFTRQVSGARVVPLGSMQTVSGYTFRGFMSHTNNYPCAYLNAASAIGMKMQDVDLFIKRLDRCLKAVRKERSKESDDNYDKTEDVDIEEMALKLDNVLLDTYQDASS
notes: human SepSecS (SEPSECS) in pQE80 with an N-terminal His-tag, pathogenic variant made by site-directed mutagenesis; Mutation found in patients (PCH2D); also called Y334C; Y334C70; not shown: His6, N-terminal, kept
stoichiometry N [2]: 4

B3: human SepSecS Thr325Ser variant (enzyme)
chain: MNRESFAAGERLVSPAYVRQGCEARRSHEHLIRLLLEKGKCPENGWDESTLELFLHELAIMDSNNFLGNCGVGEREGRVASALVARRHYRFIHGIGRSGDISAVQPKAAGSSLLNKITNSLVLDIIKLAGVHTVANCFVVPMATGMSLTLCFLTLRHKRPKAKYIIWPRIDQKSCFKSMITAGFEPVVIENVLEGDELRTDLKAVEAKVQELGPDCILCIHSTTSCFAPRVPDRLEELAVICANYDIPHIVNNAYGVQSSKCMHLIQQGARVGRIDAFVQSLDKNFMVPVGGAIIAGFNDSFIQEISKMYPGRASASPSLDVLISLLSLGSNGYKKLLKERKEMFSYLSNQIKKLSEAYNERLLHTPHNPISLAMTLKTLDEHRDKAVTQLGSMLFTRQVSGARVVPLGSMQTVSGYTFRGFMSHTNNYPCAYLNAASAIGMKMQDVDLFIKRLDRCLKAVRKERSKESDDNYDKTEDVDIEEMALKLDNVLLDTYQDASS
notes: human SepSecS (SEPSECS) in pQE80 with an N-terminal His-tag, pathogenic variant made by site-directed mutagenesis; Mutation found in patients (PCH2D); also called T325S; T325S70; source: E. coli SoluBL21(DE3), purified from the soluble fraction, S200 SEC (70 min and 55 min peaks); not shown: His6, N-terminal, kept
stoichiometry N [3]: 4
